One block for each binder: values may come before it.
Molecular target: CaMKII
Test: cell-based or functional assay

Chain of CaMKII (chain, from a related filing, as listed by the source): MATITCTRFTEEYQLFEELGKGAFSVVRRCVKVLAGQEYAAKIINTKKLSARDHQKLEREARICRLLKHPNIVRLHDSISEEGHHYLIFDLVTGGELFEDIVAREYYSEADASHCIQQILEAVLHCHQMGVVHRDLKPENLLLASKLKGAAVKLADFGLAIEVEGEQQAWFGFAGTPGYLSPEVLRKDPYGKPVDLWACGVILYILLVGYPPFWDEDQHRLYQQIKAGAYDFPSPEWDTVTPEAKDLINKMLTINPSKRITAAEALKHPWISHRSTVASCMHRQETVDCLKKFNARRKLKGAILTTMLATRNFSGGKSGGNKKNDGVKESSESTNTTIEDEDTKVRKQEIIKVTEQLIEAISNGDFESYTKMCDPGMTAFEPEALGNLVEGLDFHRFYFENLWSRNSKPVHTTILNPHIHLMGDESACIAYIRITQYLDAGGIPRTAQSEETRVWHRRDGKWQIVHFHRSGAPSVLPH

IC50 of CaMKII inhibition (CaMKII activity assay, 0.1 nM CaMKII): ~0.75 nM
fold potency of CaMKII inhibition against CN19: > 125 fold
B1: CN19o (peptide)
peptide: KRAPKLGQIGRQKAVDIED

fold increase of potency of CaMKII inhibition against CN19 wild type: > 10 fold
B2: CN19 R14A (peptide)
peptide: KRPPKLGQIGRSKAVVIED

IC50, phosphorylation of syntide 2 by CaMKII: ~100 nM
B3: CN20 (peptide)
peptide: KRPPKLGQIGRSKRVVIEDD

fold reduction of potency of CaMKII inhibition against CN19: > 3 fold
B4: CN19 R11A (peptide)
peptide: KRPPKLGQIGASKRVVIED

fold decrease of potency of CaMKII inhibition against CN19: > 3 fold
B5: CN19 S12A (peptide)
peptide: KRPPKLGQIGRAKRVVIED

IC50 of CaMKII inhibition: ~1 nM
B6: CN19a2v V12Q (peptide)
peptide: KRAPKLGQIGRQKAVVIED

IC50, phosphorylation of syntide 2 by CaMKII: ~100 nM
B7: CN19 (peptide)
peptide: KRPPKLGQIGRSKRVVIED

IC50 of CaMKII inhibition (syntide 2): ~20 nM
fold potency of CaMKII inhibition against CN19: ~5 fold
B8: CN19a2v (peptide)
peptide: KRAPKLGQIGRVKAVVIED

IC50 of CaMKII inhibition: ~1 nM
B9: CN19a2v V16D (peptide)
peptide: KRAPKLGQIGRVKAVDIED
